Source: US20170165321A1, “METHOD FOR REDUCING AND/OR DELAYING PATHOLOGICAL EFFECTS OF HUMAN IMMUNODEFICIENCY VIRUS I (HIV) OR FOR REDUCING THE RISK OF DEVELOPING ACQUIRED IMMUNODEFICIENCY SYNDROME (AIDS)” (Bionor Immuno AS, priority 2014, published 2017)
Where no end group is shown, it is not given here.

Assays:
HIV-specific T-cells = conditions: IMiD present during in vitro T-cell stimulation; Keersmaecker et al.; cited from earlier work
[1] = tested on: HIV-1 expression in latently infected cell lines and primary T cells; conditions: cited from earlier work
HIV positive subjects [2] = experiment: Open-label re-boost follow-up study CTN BI Vacc-4x/2009/1; format: in vivo, human
Text: CTN BI Vacc-4x/2009/1 was an open-label follow-up of study CTN B-HIV-2/2001 to determine whether a re-boost with Vacc-4x could reactivate or increase the immune response obtained during the immunization performed in the CTN B-HIV-2/2001 study. The secondary objectives were to evaluate: the in vivo immunogenicity of Vacc-4x by evaluation of DTH and to compare the DTH response to DTH in the initial study; the effect of Vacc-4x on CD4 counts, CD8 counts and HIV viral RNA; and the safety and tolerability of Vacc-4x. All 26 subjects included in the study received two booster administrations of Vacc-4x.

[3] = tested on: HIV-1 DNA (HIV-1 gag gene); experiment: Proviral DNA by real-time PCR in re-boosting study CT-BI Vacc-4x 2012/1; format: in vivo, human; conditions: PP
Protocol: The study CT-BI Vacc-4x 2012/1 (EudraCT Number: 2012-002281-12) is an open label, multicenter, follow-up, re-boosting study of subjects who previously completed the immunization regimen with Vacc-4x active and stopped ART (at Week 28) in the CT-BI Vacc-4x 2007/1 Study (EudraCT Number 2007-006302-13). No restart of ART is required. The subjects will be re-boosted with two immunizations (Visit 2 and Visit 3) of Vacc-4x, 1.2 mg peptides (12 mg/mL), with a 2 week interval between immunizations.
HIV-1 DNA levels will be determined by real-time PCR (Taqman) assay targeting HIV-1 gag gene. Briefly, DNA for each subject at visit 2, 4, 6, 9 and 10 will be extracted from total PBMCs (1-4 million cells), eluted in appropriate storage buffer, quantified and stored at −20° C. until used. Equal amounts of DNA (≈300 ng) will be used to quantify gag and albumin genes in order to determine the number of copies of HIV-DNA per million of cells.
There was a decrease in proviral DNA levels of approximately 50% after immunization while on ART, based on geometric means.

rabbit = experiment: Rabbit study of intradermal Vacc-4x with concomitant GM-CSF; format: in vivo
Protocol: In a rabbit study the effect of Vacc-4x was evaluated in the presence of concomitant GM-CSF, the adjuvant used in the clinical program.

HIV positive subjects [4] = experiment: Phase II dose-finding study CTN B-HIV 2/2001; format: in vivo, human
Protocol: The Phase II dose-finding study (CTN B-HIV 2/2001) enrolled 40 HIV positive subjects, of which 38 completed the trial. Subjects were maintained on ART and treated with 10 immunizations at a dose of 0.4 mg (20 subjects) or 1.2 mg (20 subjects) per Vacc 4x injection, over a period of 26 weeks. Immunizations with Vacc 4x were performed following injection of rhu-GM-CSF (Leucomax [molgramostim]) as a local adjuvant. ART was interrupted from Week 26 to Week 30 to allow exposure to the subject's own virus (autologous immunization). ART was resumed from Week 30 to Week 38 to allow maturation of immune responses to the Vacc 4x peptides and to the subject's own virus. ART was discontinued from Week 38 to Week 52 when the study was formally concluded. […] One subject experienced a transient vasovagal reaction in conjunction with immunization and the DTH test at Week 26 and Week 38. A second subject experienced a vasovagal reaction in conjunction with the DTH test at Week 52. For the laboratory parameters, vital signs, and performance status, no changes attributable to immunization were observed.
The dose-dependent differences in DTH reactions were maintained throughout the study. […] ART was interrupted at Week 38 with planned restart when CD4 counts fell to less than 200/μL or when AIDS- or HIV related events were observed (i.e. clinical practice).
However, 14 weeks after the last interruption of ART (Week 52), the mean CD4 counts were still above 200×10^6 cells/L. No difference between the LD and the HD groups was observed. The majority of subjects remained off ART following completion of the study (Week 52); permission was given to follow the subjects until they resumed ART. The duration of treatment interruption was linked to immune responsiveness to the peptides. […] The median treatment interruption achieved for all the subjects that participated in the Vacc-4x Phase II clinical study was 31 months.

rats = experiment: Single-dose intravenous toxicity study in rats; format: in vivo, rat
Protocol: (§1) Toxicity studies were performed in mice and rats on the peptide composition of the vaccine in Example 2. The mouse was selected for the study to provide comparative data from a second commonly used rodent species. The test substance was a mixture of four peptides supplied as one vial containing lyophilised material for reconstitution with physiological saline, and dose levels were expressed in terms of total peptide load. The individual peptides was present in ratio 1:1:1:1 w/w giving dose levels of each peptide of 0.0075 mg/kg body weight, 0.075 mg/kg body weight and 0.75 mg/kg body weight, which are up to 500 fold the intended human dose. The test animals were divided into four groups of ten animals each (five males and five females); a saline control group and groups for low, intermediate and high doses. The test composition was administered once, by intravenous infusion into a tail vein at a dose rate of 3 ml/minute. The animals were killed at day 15 and 16 by intraperitoneal injection of sodium pentobarbitone.

[5] = tested on: patients infected with HIV-1; experiment: Phase II randomized placebo-controlled study CT-BI Vacc-4x 2007/1; format: in vivo, human
Protocol: The Phase II Study CT-BI Vacc-4x 2007/1 (EudraCT Number 2007-006302-13) was performed in US and Europe (UK, Germany, Spain and Italy). The study was a randomized, double-blind, multicenter, immunogenicity study of Vacc-4x versus placebo in patients infected with HIV-1 who have maintained an adequate response to ART. The primary objective was to evaluate the effect of Vacc-4x immunizations versus placebo on CD4 counts, T-cell function (ELISPOT, T-cell proliferative responses and intracellular cytokine staining) and the response to interruption of ART. The necessity to resume ART between the interruption of ART at Week 28 and the end of the study at Week 52, due to decreased CD4 count or increased viral loads, was monitored as one of the primary efficacy endpoints.

[6] = Osmolality of reconstituted Vacc-4x drug product; format: physicochemical
Protocol: The range of 10-100 mOsm/kg was defined based on the result obtained for the technical sample. Potential variability due to the four peptides is taken into account. For the drug product, approximately 1 mg of each of the four Vacc-4x peptides was used. The lyophilisate is reconstituted with 0.30 mL of WFI. Taking the acetic acid contents of the peptides listed in table 1 into account, the acetic acid content of Vacc-4x is approximately 0.40 mg in 0.30 mL of solution. The theoretical osmolality is approximately 23 mOsmol/L by calculation, which correlates well with the values determined in the Vacc-4x batches (20-23 mOsmol/kg).

mice = experiment: Single-dose intravenous toxicity study in mice; format: in vivo, mouse
Protocol: as §1

[7] = 26 subjects, two booster administrations
[8] = single intravenous dose, total peptide load
[9] = single intravenous infusion, up to 0.75 mg/kg of each peptide
[10] = 0.4 mg/injection, 12 immunizations

Molecule: Nc1cccc2c1CN(C1CCC(=O)NC1=O)C2=O (centres unmarked) [Lenalidomide]
- function of the T-cells (HIV-specific T-cells): a number of improvements in the function of the T-cells

Molecule: Nc1cccc2c1C(=O)N(C1CCC(=O)NC1=O)C2=O (centres unmarked) [pomalidomide]
- function of the T-cells (HIV-specific T-cells): a number of improvements in the function of the T-cells

Molecule: C/C=C1\NC(=O)[C@H]2CSSCC/C=C/[C@H](CC(=O)N[C@H](C(C)C)C(=O)N2)OC(=O)[C@H](C(C)C)NC1=O [romidepsin, (1S,4S,7Z,10S,16E,21R)-7-ethylidene-4,21-bis(1-methylethyl)-2-oxa-12,13-dithia-5,8,20,23-tetraazabicyclo[8.7.6] tricos-16-ene-3,6,9,19,22-pentone]
- activation of HIV-1 expression [1]: potently activates HIV-1 expression

B1: Vacc-4x: four synthetic peptides (Vacc-10, Vacc-11, Vacc-12, Vacc-13 acetate) corresponding to conserved domains on HIV-1 p24; SEQ ID NOs 3, 6, 11, 18 (peptide)
chain 1: APTRAKRRVVQREKRAV
chain 2: DRPEGIEEEGGERDR
chain 3: QLLLNGSLAEEEIVI
chain 4: GGAKRRVVGGAKRRVVGGQREKR
modifications: also: acetate salts
- adverse events possibly/probably related to the study treatment (HIV positive subjects [2]; 26 subjects): 60
- patients reporting swelling related to the immunization (HIV positive subjects [2]; 26 subjects): Five
- related adverse events that were mild (HIV positive subjects [2]; 26 subjects): 98%
- serious adverse events (HIV positive subjects [2]; 26 subjects): No patient reported serious adverse events
- subjects reporting AEs (HIV positive subjects [2]; [7]): 23 subjects
- total AEs reported (HIV positive subjects [2]; [7]): 74 AEs
- duration of T cell responses induced by Vacc-4x peptides (HIV positive subjects [2]; before re-boost): up to seven
- effect of re-boosting on CD4, CD8 and viral load (HIV positive subjects [2]; two booster administrations): no negative effect
- Proviral DNA, Geometric mean ([3]; Baseline, n 26): 22.3 copies/mL
- Proviral DNA, Mean ([3]; Baseline, n 26): 98.4 copies/mL
- Proviral DNA, Median ([3]; Baseline, n 26): 57.0 copies/mL
- Proviral DNA, Geometric mean ratio (Week 4/Baseline) ([3]; n 26): 0.5
- Proviral DNA, Geometric mean ([3]; Week 4, n 26 (Table 3)): 11.4 Copies/mL
- Proviral DNA, Mean ([3]; Week 4, n 26 (Table 3)): 93.9 Copies/mL
- Proviral DNA, Median ([3]; Week 4, n 26 (Table 3)): 34.5 Copies/mL
- Proviral DNA, Geometric mean ([3]; Week 4, n 27 (Table 2)): 12.9 copies/mL
- Proviral DNA, Mean ([3]; Week 4, n 27 (Table 2)): 100.8 copies/mL
- Proviral DNA, Median ([3]; Week 4, n 27 (Table 2)): 45.0 copies/mL
- limiting toxicology (rabbit): no limiting toxicology
- local intradermal reactions (erythema, edema) versus control animals (rabbit): slightly more pronounced
- systemic reactions (rabbit): no systemic reactions
- subjects with treatment-related AEs (HIV positive subjects [4]; 0.4 mg group (20 subjects)): 8 subjects
- DTH positive reactions (HIV positive subjects [4]; 0.4 mg or 1.2 mg per injection): observed for all subjects
- SAEs during the period of immunization (HIV positive subjects [4]; 0.4 mg or 1.2 mg per injection): No SAEs were reported
- subjects with treatment-related AEs (HIV positive subjects [4]; 1.2 mg group (20 subjects)): 12 subjects
- DTH positive responses (induration and erythema), high dose versus low dose (HIV positive subjects [4]; 1.2 mg versus 0.4 mg): statistically significantly higher in the high dose
- median treatment interruption (HIV positive subjects [4]; all subjects of the Phase II study, off ART): 31 months
- subjects with treatment-related AEs (HIV positive subjects [4]; both dose groups, 40 subjects, 10 immunizations over 26 weeks): 20 subjects
- decline in CD4 cells versus similar subjects who stopped treatment without Vacc-4x (HIV positive subjects [4]; comparison with subjects in the Netherlands): significantly slower decline in CD4 cells
- CD4 counts during the immunization period (HIV positive subjects [4]; on ART): stable or increased
- safety margin over the planned human dose level (rats; from no effect level): 500 fold
- no effect level (rats; [8]): > 3 mg/kg
- adverse reactions (rats; [9]): no adverse reactions
- percentage change in CD4 count between Week 28 and last CD4 assessment before resumption of ART, versus placebo ([5]; ITT analysis population): no effect compared with placebo
- proportion of subjects requiring resumption of ART after ART cessation at Week 28, versus placebo ([5]; ITT analysis population): did not reduce
- time to restarting ART versus placebo ([5]; ITT analysis population): similar
- change in HIV-1 RNA from Week 28 through to Week 52 versus placebo ([5]; after ART cessation): statistically significant difference between groups in favour of Vacc-4x
- safety concern ([5]; in vivo): No safety concern
- Week 52 (LOCF) viral load versus placebo ([5]; post-hoc analysis): statistically significantly lower
- average viral load versus placebo ([5]; subgroup who remained off ART until Week 52): lower in the Vacc-4x-treated subjects than the placebo group
- HIV-1 RNA AUC versus placebo ([5]; subjects who remained off ART at Week 52): lower in the Vacc-4x group than in the placebo group
- viral load (VL) set point versus placebo and versus historic preART values ([5]; with rhuGM-CSF (Leukine) as adjuvant): significant reduction
- immunogenicity, T-cell proliferative responses ([5]; with rhuGM-CSF as adjuvant): immunogenic, inducing proliferative responses in both CD4 and CD8 T-cells
- theoretical osmolality ([6]; by calculation, approx. 0.40 mg acetic acid in 0.30 mL): approximately 23 mOsmol/L
- osmolality determined in the Vacc-4x batches ([6]; lyophilisate, approx. 1 mg of each peptide, reconstituted with 0.30 mL WFI): 20-23 mOsmol/kg
- safety margin over the planned human dose level (mice; from no effect level): 500 fold
- no effect level (mice; [8]): > 3 mg/kg
- adverse reactions (mice; [9]): no adverse reactions
- serious adverse events (HIV-positive subjects; [10]): no serious adverse events (SAEs) occurred
- severity of adverse reactions (HIV-positive subjects; [10]): mild or moderate in severity except for severe local reactions in one subject
- antibody response to Vacc-4x peptides (HIV-positive subjects; 11 subjects): no antibody response
- cell-mediated immune response by delayed-type hypersensitivity (DTH) skin reaction (HIV-positive subjects; 11 subjects): All subjects experienced a cell-mediated immune response
- subjects with cell-mediated immune response by γ IFN release ELISPOT (HIV-positive subjects; 11 subjects): 45 % of the subjects
- treatment related fatigue-vertigo (HIV-positive subjects; 11 subjects): four
- treatment related influenza-like symptoms (HIV-positive subjects; 11 subjects): two
- treatment related irritated skin at injection site (HIV-positive subjects; 11 subjects): two
- treatment related painful injection (HIV-positive subjects; 11 subjects): seven
- subjects with events judged related to treatment (HIV-positive subjects; 11 subjects, 0.4 mg/injection, 12 immunizations): nine
- subjects with one or more adverse events (HIV-positive subjects; 11 subjects, 12 immunizations of 0.4 mg/injection over 26 weeks, rhu-GM-CSF adjuvant): All subjects experienced one or more adverse events
